# According to US9878046B2, “Adverse side-effects associated with administration of an anti-hyaluronan agent and methods for ameliorating or preventing the side-effects” (Halozyme, Inc., priority 2010, dated 2018):
# “And” between values parts separate entries of the source, which are not always exact repeats. Equal entries are not always repeated. “Also recorded” adds a separate entry of the source.
# Legend:
# [1] = Tolerability / musculoskeletal response to PEGPH20 in beagle dogs; assay type: in vivo, beagle dog
# [2] = test system: soluble plasma hyaluronan; assay: Soluble plasma hyaluronan ELISA in PC3 tumor-bearing mice; assay type: in vivo; conditions: PEGPH20 4.5 mg/kg alone or + dexamethasone (high or low dose)
# Method: Plasma samples were additionally used to measure soluble plasma hyaluronan in the control group and each of the treatment groups (R&D Systems Catalog DY3614; ELISA assay). In the vehicle control group, the plasma hyaluronan levels ranged from 800,000 to 900,000 ng/mL.
# [3] = test system: soluble plasma hyaluronan; assay: Soluble plasma hyaluronan ELISA in BxPC3 model mice; assay type: in vivo; conditions: PEGPH20 4.5 mg/kg alone or + dexamethasone (high or low dose)
# Method: Plasma samples were additionally used to measure soluble plasma hyaluronan in the control group and each of the treatment groups (R&D Systems Catalog #DY3614; ELISA assay). In the vehicle control group, the plasma hyaluronan levels ranged from 2,000 to 4,000 ng/mL.
# [4] = test system: pericellular and stromal HA; assay: Histochemical detection of HA in patient tumor biopsies; assay type: in vivo, human; conditions: colon cancer patient, liver metastasis, 1.6 μg/kg twice weekly + dexamethasone, post vs archived pre biopsy
# Method: An archived pre-dose biopsy (pre biopsy) obtained in 2007 (3.5 years prior to the PEGPH20 study) and a post-PEGPH20 Cycle 1 (3 days after the last dose) biospsy (Post biopsy) were obtained from a colon cancer patient with liver metastases. The patient post-treatment biopsy was obtained after one cycle of PEGPH20 treatment at 1.6 μg/kg on a twice weekly schedule with dexamethasone co-treatment.
# Briefly, the tumor biopsies were fixed in normal buffered formalin (NBF) and 5 μm sections cut and stained using a biotin labeled hyaluronan binding protein (HABP-bio) (Seikagaku, Japan). After washing to remove the primary reagent, a labeled secondary reagent was used. Nuclei were counter-stained using a DAPI (4′,6-diamidino-2-phenylindole) reagent. Micrographs were captured via a Nikon Eclipse TE2000U inverted fluorescent microscope coupled to a Insight FireWire digital camera (Diagnostic Instruments, Michigan) or ZEISS overhead scope (Carl Zeiss, Inc.) that has the same imaging system.
# [5] = test system: hyaluronan present in the circulation; assay: Plasma HA and catabolites (disaccharide assay) in patients; assay type: in vivo, human
# Method: This Example describes a method for the determination of the HA-disaccharide content in plasma. The method employs the hydrolysis of HA with Chondroitinase ABC to release the HA-disaccharides, derivatize them with 2-amino acridone (AMAC) and analyze them on a reverse-phase HPLC coupled with fluorescence detection. Quantitation of the HA-disaccharides is accomplished by comparison with HA-disaccharide standards.
# Next, the sample was hydrolyzed. The sample (e.g. plasma) was prepared by taking approximately 100 μg of protein in a polypropylene tube and adjusting the volume to 340 μl with water. A matrix blank also was prepared by taking dilution buffer (1.59 g HEPES, 5.07 g NaCl, 1800 mL water, pH 7.0) equal to the volume of the sample and adjusting the volume to 340 μl. Hydrolysis of the samples and matrix blank were effected by adding 60 μl of TFA to the sample tube and matrix blank tube and the contents were mix and incubated at 100° C. for 4 hours. The vials were allowed to cool to room temperature. The vials were evaporated to dryness using a speed vac. Then, 300 μl of water was added to each tube and vortexed to resuspend the samples. […]
# The enzymatic activity of PEGPH20 was measured by monitoring concentrations of hyaluronan present in the circulation.
# [6] = test system: PC3 prostate carcinoma cell line; conditions: 157,500 Units/kg (about 4.5 mg/kg) IV Q3Dx5; cited from earlier work
# [7] = Plasma pharmacokinetics of PEGPH20 (hyaluronidase activity) in patients
# Method: Plasma samples were stored frozen, and concentrations of PEGPH20 were determined by measuring hyaluronidase activity using a modified turbidimetric assay as described in Example 4. The USP turbidimetirc method used for the determination of hyaluronidase activity awas based on the formation of an insoluble precipitate that occurs when HA binds with acidified serum. PEGPH20 concentrations were expressed as units of hyaluronidase activity (U/mL) as interpolated from a calibration curve. Activity was reported to the nearest 1 U/mL, and the analytical methods were applicable for measuring plasma hyaluronidase concentrations as low as 0.3125 U/mL.
# [8] = single 50 μg/kg dose, individual patients 1 and 2
molecule,measurement,setting,value
PEGPH20 (protein) LNFRAPPVIPNVPFLWAWNAPSEFCLGKFDEPLDMSLFSFIGSPRINATGQGVTIFYVDRLGYYPYIDSITGVTVNGGIPQKISLQDHLDKAKKDITFYMPVDNLGMAVIDWEEWRPTWARNWKPKDVYKNRSIELVQQQNVQLSLTEATEKAKQEFEKAGKDFLVETIKLGKLLRPNHLWGYYLFPDCYNHHYKKPGYNGSCFNVEIKRNDDLSWLWNESTALYPSIYLNTQQSPVAATLYVRNRVREAIRVSKIPDAKSPLPVFAYTRIVFTDQVLKFLSQDELVYTFGETVALGASGIVIWGTLSIMRSMKSCLLLDNYMETILNPYIINVTLAAKMCSQVLCQEQGVCIRKNWNSSDYLHLNPDNFAIQLEKGGKFTVRGKPTLEDLEQFSEKFYCSCYSTLSCKEKADVKDTDAVDVCIADGVCIDAFLKPPMETEEPQIFY,reaction immediately post-dose after a break in dosing,"[1]; 3040 Units/kg IV on Day 17, 26 or 33",systemic anaphylactoid-like reaction
same,musculoskeletal effects after re-dose,"[1]; 3040 Units/kg IV on Day 59, antibody-positive dogs",No musculoskeletal effects were observed
same,"musculoskeletal responses, repeat daily dosing","[1]; Day 7 through Day 9, 3800 to 15200 Units/kg",No musculoskeletal responses were observed
same,"musculoskeletal responses, repeat daily dosing","[1]; Day 12, 60800 Units/kg (1.6 mg/kg), dog 288 IV",reduced mobility 2 hours after the 60800 Units/kg (1.6 mg/kg) dose with complete recovery within 10 hours post-dose
same,"musculoskeletal responses, repeat daily dosing","[1]; Days 4 through 6, 1520 to 3040 Units/kg, IV or SC","reduced mobility (reduced ability to walk or stand), overall decreased activity, and muscle stiffness in the neck, back and extremities upon palpation; also recorded: the severity of the responses decreased from Day 4 to Day 6"
same,resolution of musculoskeletal responses,"[1]; single dose 3040 U/kg on Day 1, three dogs",≤ 4 days
same,time of musculoskeletal response post-dose,"[1]; single dose 3040 U/kg, IV or SC, three dogs",≤ 23 h
same,musculoskeletal observations,"[1]; single dose 3040 Units/kg (0.08 mg/kg), IV or SC","reduced mobility (reduced ability to walk or stand) and tighness of muscles of the neck, back and extremities upon palpation; also recorded: reduced mobility (reduced ability to walk or stand), overall decreased activity, and muscle stiffness in the neck, back and extremities upon palpation"
same,musculoskeletal observations on the following day,[1]; single dose of either 0.08 mg/kg or 0.3 mg/kg,"reduced walking ability, difficulty standing, decreased activity and tightness of the muscles of the neck, back and extremities"
same,plasma hyaluronan,[2],no detectable (below limit of quantitation) hyaluronan
same,plasma hyaluronan,[3],no detectable (below limit of quantitation) hyaluronan
same,change in tumor HA by histochemical staining,[4],decrease in pericellular and stromal HA levels
same,HA catabolite levels over a week,"[5]; 0.5 μg/kg to 1.5 μg/kg, 12 patients",increased in a dose-dependent manner
same,plasma concentrations of hyaluronan,[5]; single 50 μg/kg dose,increased significantly
same,"xenograft tumor growth inhibition, previously shown",[6],34-70%
same,time course of plasma concentrations,[7]; 0.5 μg/kg to 1.5 μg/kg,concentrations fell below the limit of quantification (BQL) during the first day
same,plasma concentrations after dosing,"[7]; 0.5 μg/kg to 1.5 μg/kg, twelve patients",≤ 1.5 U/mL
same,CL,[7]; [8],2.44 mL/h/kg and 3.29 mL/h/kg
same,"V1 (mL/kg), volume of the central compartment",[7]; [8],57.96 mL/kg and 55.93 mL/kg
same,"t1/2α (hr), distribution half-life",[7]; [8],4.77 h and 2.47 h
same,plasma enzyme at 72 hours after administration,[7]; single IV dose 50 μg/kg,< 2 U/mL
same,plasma enzyme initially following administration,[7]; single IV dose 50 μg/kg,approximately 30 U/mL
same,terminal half-life,[7]; single IV dose 50 μg/kg,approximately 2 days
same,plasma half life,"[7]; single IV dose 50 μg/kg, two patients",28 to 48 h
